From the nanobody polyreactivity screen of Harvey et al. (2022)

assay: yeast display, Sf9 membrane polyspecificity reagent, FACS + sequencing; frameworks hold sequencing errors
Outline: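 Galactose-induced (36–48 hours) yeast carrying a synthetic nanobody display library were exposed to 10% biotinylated, detergent-solubilized Sf9 membrane reagent at 4 °C for 1 hour. FACS followed streptavidin microbead enrichment, using low and high (top ~1%) gates for expression (anti-HA) and reagent binding (streptavidin). Colony PCR, MiSeq 2 × 250 sequencing and CDR-length filtering followed. Labels for polyreactivity reflect the gate of origin.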

Sequence | polyreactivity (PSR sort gate)
QVQLVESGGGLVQAGGSLRLSCAASGSTFWYYAMGWYRQAPGKERELVAAITRGASTNYADSVKGRFTISRDNAKNTVYLQMNSLKPEDTAVYYSAAGPARWKGYYWGQGTQVTVSS | high polyreactivity
QVQLVESGGGLVQAGGSLRLSCAASGSTFWYYAMGWYRQAPGKERELVAAITSSGSTYYADSVKGRFTISRDNAKNTVYLQMNSLKPEDTAVYYCAAEQWYGYASYDYWGQVTQVTVSS | high polyreactivity
QVQLVESGGGLVQAGGSLRLSCAASGSTFWYYAMGWYRQAPGKERELVADITISGGSTYYSDSVKGRFTISRDNAKNTVYLQMNSLKPEDTAVYYCATDDTHRVGWFDYWGQGTQVTVSS | low polyreactivity
QVQLVESGGGLVQAGGSLRLSCAASGSTFWYYAMGWYRQAPGKERELVADITYSGVSTYYADSVKGRFTISRDNAKNTVYLQMNSLKPEDTAVYYCNADWGSVNGYSGYYYWGQGTQVNVSS | low polyreactivity
QVQLVESGGGLVQAGGSLRLSCAASGSTFWYYAMGWYRQAPGKERELVASITYSGGSTYYADSVKGRFTISRDNAKNTVYLQMNSLKPEDSAVYYCAAEGYYSNYHYWGQGTQVTVSS | low polyreactivity
QVQLVESGGGLVQAGGSLRLSCAASGSTFWYYGMGWYRQAPGKERELVAAITRGGSTYYADSVKGRFTISRDNAKNTVYLQMNSLKPEDTAVYYCAARPRYRAPYGYWGQGTQVTVSS | high polyreactivity
QVQLVESGGGLVQAGGSLRLSCAASGSTFWYYGMGWYRQAPGKERELVAAITRGGSTYYADSVKGRFTISRDNAKNTVYLQMNSLKPEDTAVYYCARAPSYSTGVSIRDYWGQGTQVTVSS | high polyreactivity
QVQLVESGGGLVQAGGSLRLSCAASGSTFYAKAMGLYRQAPGKEREFVAVITQSGGSTYYADSVKGRFTISRDNAKNTVYLQMNSLKPEDTAVYYCAKTHYRRSLSMYYWGQGTQVTVSS | low polyreactivity
QVQLVESGGGLVQAGGSLRLSCAASGSTFYANAMGWYRQAPGKERELVAAIDWSGATTYYADSVKGRFTISRDTAKNTVYLQMNSLKPEDTAVYYCAAYRYRPHVHRYYRYDYWGQGTQVTVSS | high polyreactivity
QVQLVESGGGLVQAGGSLRLSCAASGSTFYAYAMGWYRQAPGKERELVAAITSRGGSTYYADSVKGRFTISRDNAKYTVYLELISLKPEDTAVYYCDARTCWWSRYYGSWGQGTQVTVSS | high polyreactivity
QVQLVESGGGLVQAGGSLRLSCAASGSTFYAYTMGWYRQAPGKARELFGTISSSGGRTNYADSVKGRFTISRDNAKNTVYLQMNSLKPEDTAVYYCAARSRVRNLVNGYTGLWYDYWGQGTQVTVSS | high polyreactivity
QVQLVESGGGLVQAGGSLRLSCAASGSTFYDNAMGWYRQAPGKERELVASIRSGGSTKYADSVKGRFTISRDNAKNTVYLQMNSLKPEDTAVYYCATAFIVPFPGSDYWGQGTQVTVSS | low polyreactivity
QVQLVESGGGLVQAGGSLRLSCAASGSTFYDYAMGWYRQAPGKERELVAAINGNGDSTYYADSVKGRFTISRDNAKNTVYLQMNSLKPEDTAVYYCAASGYRRYYGYDYWGQGTQVTVSS | low polyreactivity
QVQLVESGGGLVQAGGSLRLSCAASGSTFYDYAMGWYRQAPGKERELVASISISGGSTYADSVKGRFTISRDNAKNTVYLQMNSLKPEDTAVYYCAADSWGIGYGPDYEYWGQGTQVTVSS | low polyreactivity
QVQLVESGGGLVQAGGSLRLSCAASGSTFYDYAMGWYRQAPGKERELVASISISGGSTYADSVKGRFTISRDNAKNTVYLQMNSLKPEDTAVYYCNAKNYSWDDYYWVPDYEYWGQGTQVTVSS | low polyreactivity
QVQLVESGGGLVQAGGSLRLSCAASGSTFYDYVMGWYRQAPGKERELVAAITGDGTTDYADSVKGRFTISRDNAKNTVYLQMNSLKPEDTAVYYCNADISLDYDYWGQGTQVTVSS | low polyreactivity
QVQLVESGGGLVQAGGSLRLSCAASGSTFYENAMGWYRQAPGKERELVAAITWSGGRTYYADSVKGRFTISRDNAKNTVYLQMNSLKPEDTAVYYCNARARSRKFYYWGQGTQVTVSS | high polyreactivity
